# Test results taken from publication PMC3401230, “The Crystal Structures of Dystrophin and Utrophin Spectrin Repeats: Implications for Domain Boundaries” (PLoS ONE, 2012).
# Molecular target: the molecule itself
# Assay: SEC; Superdex 75 HR 30/10; Utr-SR1 in 20 mM Tris pH 8.0, 50 mM NaCl; Dys-SR1 in PBS; no DTT added
protein,measurement,value
"Dystrophin N-terminal (repeat 1) spectrin repeat (domain or fragment, human, UniProt P11532 338-456, looked up, dystrophin, human, residues 338-456 (first spectrin repeat); Without a reducing agent part of the protein is a dimer linked by a disulphide bond between C433 of each molecule; The model in PDB 3UUN holds residues 338-453 (monomer A) and 339-452 (monomer B); Tag and cleavage are told only as 'prepared in an equivalent manner' to Utr-SR1; also called Dys-SR1; source: E. coli BL21(DE3), purified in …) EVNLDRYQTALEEVLSWLLSAEDTLQAQGEISNDVEVVKDQFHTHEGYMMDLTAHQGRVGNILQLGSKLIGTGKLSEDEETEVQEQMNLLNSRWECLRVASMEKQSNLHRVLMDLQNQK",binding result,binds
